B1: Friend leukemia integration 1 transcription factor, residues 116 to 197; numbered along this chain, Q01543 (parent)
chain: NMTTNERRVIVPADPTLWTQEHVRQWLEWAIKEYSLMEIDTSFFQNMDGKELCKMNKEDFLRATTLYNTEVLLSHLSYLRES
B2: Retinoic acid receptor RXR-alpha, residues 132 to 208; numbered along this chain, P19793 (parent)
chain: KHICAICGDRSSGKHYGVYSCEGCKGFFKRTVRKDLTYTCRDNKDCLIDKRQRNRCQYCRYQKCLAMGMKREAVQEE

Variants of: B1
Assay: abundance fitness (aPCA) (normalised: wild type 0, dead -1); higher = more abundant; growth selection in yeast, the domain comes from the species named
Conditions: Homo sapiens

Abundance fitness: each site, then its substitutions
N1: K -0.34, V -0.166, R -0.111, M -0.031, L -0.137, G -0.212, I 0.178, A -0.076, Y 0.004
M2: K -0.314, N -0.184, I -0.081, E -0.361, D -0.545, L -0.005, G 0.119, F 0.092

Variants of: B2
Assay: as above
Conditions: Homo sapiens

Abundance fitness: each site, then its substitutions
E77: Y 0.023, D -0.002, L -0.012, Q -0.012, F 0.1, V -0.002, W 0.04, I 0.038, C 0.013, N 0.065, K 0.008, M -0.034, G 0.073, H 0.02, T 0.106, R 0.003
A73: I 0.05, S 0.004, E -0.011, G -0.008, F -0.01, T 0.009, R -0.037, C 0.04, V -0.019, W -0.007, Y -0.056, N 0.015, L -0.027, Q -0.04, K -0.081, M 0.044, P 0.011, D 0.048
V74: T 0, M -0.025, Q -0.007, D -0.039, N -0.064, P -0.002, H -0.021, W -0.074, K 0.056, S -0.059, R -0.03, C 0.017, G -0.028, Y -0.039, E -0.018, A -0.045, L -0.046, I -0.017
C59: G -0.861, R -0.955, M -1.08, A -0.748, N -1.13, T -0.651, D -0.647, K -1.05, Y -0.418, E -0.59, P -0.753, H -0.066, S -0.657, W -0.427, V -0.915, L -0.911, I -0.977, F -1.05
A66: D 0.031, Q -0.031, R -0.019, C -0.099, F 0.015, I -0.032, T 0.002, G 0.017, E 0.033, V 0.029, P -0.713, S 0.015, N -0.005, L 0.047, W -0.063, H 0.045, K 0.045, Y -0.036, M -0.042
R51: K 0.082, L 0.022, C -0.053, M -0.025, D -0.073, Q -0.015, W -0.038, S 0.017, I -0.001, A 0.007, G 0.015, E -0.005, T 0.022, P 0.045, H -0.052, V -0.035, N -0.071
M69: G -0.159, V -0.319, R -0.875, W -0.007, A -0.069, Q -0.157, F 0.051, C -0.09, E -0.322, H -0.548, D -0.733, L -0.036, T -0.343, K -0.482, I -0.275, P -0.856, S -0.262
N54: D -0.128, S -0.167, Y -0.061, H 0.117
Y58: M -0.062, R -0.032, K 0.024, C -0.066, E 0.043, A -0.007, G -0.028, D 0.045, F -0.02, N -0.087, H 0.09, T -0.328, P -0.294, V -0.311, S 0, I -0.551
R53: D 0.002, W 0.006, L -0.041, F -0.044, Q -0.028, G -0.009, M -0.065
